Molecular target: GST.119-224 (glutathione S-transferase fusion protein of the SH2 domain, residues 119-224, of p56^lck) (not provided)
Assay: competition of peptide with p62 in the GST.119-224 pull-down from HeLa lysate

| Substance | concentration that competed away p62 binding |
| --- | --- |
| pY324 phosphotyrosyl peptide (derived from polyoma middle T antigen) | 1 mM |
| pY505 phosphotyrosyl peptide (derived from the C-terminal negative regulatory region of p56^lck) | 15 mM |
